Test results published in the supplement of paper PMC9112550, “Optimization of the antimicrobial peptide Bac7 by deep mutational scanning” (BMC Biology, 2022).

Tested on: Escherichia coli TOP10
Assay: shrunken log2 fold change of peptide-encoding DNA abundance (4.5 h post-induction vs induction); higher = less antimicrobial activity (less host growth inhibition)
Details: time post-induction: 4.5 h; library: site-saturation at positions 5, 18, 19, 20
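Note: peptides expressed intracellularly from a pBAD plasmid library in pooled LB shake-flask culture, induced with 0.3% L-arabinose, DNA abundance read by NGS, three biological replicates, DESeq2 with apeglm shrinkage.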

Sequence | shrunken log2 fold change
RRIRKRPPRLPRPRPRPRMQPRP | 0.622
RRIRQRPPRLPRPRPRPTMQPRP | 0.0998
RRIRVRPPRLPRPRPRPMCSPRP | -0.237
RRIRIRPPRLPRPRPRPKPHPRP | -0.0472
RRIRARPPRLPRPRPRPFDHPRP | -0.394
RRIRHRPPRLPRPRPRPFPYPRP | -0.0859
RRIRQRPPRLPRPRPRPFPLPRP | -0.0585
RRIRIRPPRLPRPRPRPDRWPRP | 0.0549
RRIRARPPRLPRPRPRPSRNPRP | -0.0178
RRIRFRPPRLPRPRPRPPDMPRP | -0.147
RRIRGRPPRLPRPRPRPNHRPRP | 0.00454
RRIRIRPPRLPRPRPRPNVKPRP | -0.163
RRIRDRPPRLPRPRPRPPPNPRP | 0.84
RRIRKRPPRLPRPRPRPTRSPRP | 0.831
RRIRKRPPRLPRPRPRPTQEPRP | 0.294
RRIRERPPRLPRPRPRPEKLPRP | -0.296
RRIRRRPPRLPRPRPRPCNLPRP | -0.0686
RRIRPRPPRLPRPRPRPSMCPRP | -0.0117
RRIRRRPPRLPRPRPRPTYKPRP | -0.163
RRIRNRPPRLPRPRPRPGAYPRP | -0.00116
RRIRFRPPRLPRPRPRPPWLPRP | 0.509
RRIRMRPPRLPRPRPRPWSNPRP | -0.254
RRIRTRPPRLPRPRPRPPTTPRP | 0.302
RRIRERPPRLPRPRPRPFQTPRP | 0.11
RRIRVRPPRLPRPRPRPFEPPRP | 0.126

Sequence | shrunken log2 fold change
RRIRNRPPRLPRPRPRPRTYPRP | -0.571
RRIRRRPPRLPRPRPRPILPPRP | 0.177
RRIRCRPPRLPRPRPRPVFNPRP | -0.204
RRIRGRPPRLPRPRPRPHQLPRP | 0.339
RRIRARPPRLPRPRPRPKKYPRP | -0.232
RRIRSRPPRLPRPRPRPNVGPRP | -0.0139
RRIRVRPPRLPRPRPRPEWWPRP | 0.191
RRIRVRPPRLPRPRPRPFPTPRP | 0.756
RRIRSRPPRLPRPRPRPHVYPRP | -0.355
RRIRFRPPRLPRPRPRPSSAPRP | -0.0032
RRIRYRPPRLPRPRPRPMMNPRP | -0.367
RRIRTRPPRLPRPRPRPLDVPRP | -0.594
RRIRKRPPRLPRPRPRPHFSPRP | -0.0531
RRIRGRPPRLPRPRPRPCSSPRP | -0.129
RRIRERPPRLPRPRPRPNPKPRP | -0.0343
RRIRSRPPRLPRPRPRPLAAPRP | 0.562
RRIRQRPPRLPRPRPRPACCPRP | 0.162
RRIRPRPPRLPRPRPRPISHPRP | -0.118
RRIRRRPPRLPRPRPRPNTKPRP | 0.191
RRIRARPPRLPRPRPRPPFNPRP | 0.167
RRIRVRPPRLPRPRPRPLMMPRP | -0.331
RRIRRRPPRLPRPRPRPWCEPRP | -0.0981
RRIRKRPPRLPRPRPRPYQYPRP | -0.0576
RRIRCRPPRLPRPRPRPKWQPRP | 0.0444
RRIRTRPPRLPRPRPRPNWCPRP | -0.0796

Sequence | shrunken log2 fold change
RRIRQRPPRLPRPRPRPYLRPRP | -0.176
RRIRERPPRLPRPRPRPRNVPRP | -0.00139
RRIRWRPPRLPRPRPRPEFCPRP | 0.335
RRIRIRPPRLPRPRPRPHHAPRP | 0.0597
RRIRYRPPRLPRPRPRPGWYPRP | -0.344
RRIRMRPPRLPRPRPRPDIEPRP | 1.3
RRIRYRPPRLPRPRPRPAWWPRP | 0.365
RRIRHRPPRLPRPRPRPICNPRP | -0.422
RRIRQRPPRLPRPRPRPVVVPRP | -0.0728
RRIRLRPPRLPRPRPRPNHCPRP | -0.132
RRIRDRPPRLPRPRPRPHPVPRP | -0.0422
RRIRMRPPRLPRPRPRPLLGPRP | 0.495
RRIRMRPPRLPRPRPRPRMIPRP | -0.0577
RRIRLRPPRLPRPRPRPKTSPRP | 0.0111
RRIRMRPPRLPRPRPRPLFPPRP | 0.152
RRIRLRPPRLPRPRPRPLDPPRP | 0.061
RRIRHRPPRLPRPRPRPPDCPRP | 0.182
RRIRPRPPRLPRPRPRPSCNPRP | -0.314
RRIRTRPPRLPRPRPRPDPYPRP | 0.001
RRIRMRPPRLPRPRPRPVYWPRP | 0.0687
RRIRIRPPRLPRPRPRPLTTPRP | -0.148
RRIRYRPPRLPRPRPRPVNWPRP | -0.0321
RRIRPRPPRLPRPRPRPPYAPRP | 0.193
RRIRPRPPRLPRPRPRPTSNPRP | -0.123
RRIRYRPPRLPRPRPRPFKSPRP | -0.0165

Sequence | shrunken log2 fold change
RRIRRRPPRLPRPRPRPFLSPRP | 0.128
RRIRKRPPRLPRPRPRPAYEPRP | 0.0198
RRIRLRPPRLPRPRPRPLKWPRP | -0.369
RRIRARPPRLPRPRPRPSATPRP | 1.26
RRIRRRPPRLPRPRPRPEAKPRP | 4.76
RRIRLRPPRLPRPRPRPNWDPRP | 0.14
RRIRERPPRLPRPRPRPMFMPRP | -0.468
RRIRLRPPRLPRPRPRPVGQPRP | 0.0826
RRIRARPPRLPRPRPRPHRDPRP | 0.0774
RRIRRRPPRLPRPRPRPCQFPRP | -0.0684
RRIRLRPPRLPRPRPRPPFSPRP | -0.25
RRIRDRPPRLPRPRPRPWSPPRP | 0.127
RRIRVRPPRLPRPRPRPLVRPRP | 0.0251
RRIRTRPPRLPRPRPRPCRIPRP | -0.0965
RRIRARPPRLPRPRPRPSLTPRP | 0.172
RRIRYRPPRLPRPRPRPWQDPRP | -0.122
RRIRSRPPRLPRPRPRPDKRPRP | -0.198
RRIRIRPPRLPRPRPRPNQYPRP | -0.681
RRIRWRPPRLPRPRPRPKVWPRP | 0.68
RRIRGRPPRLPRPRPRPIKCPRP | -0.0104
RRIRIRPPRLPRPRPRPFVIPRP | 0.0556
RRIRRRPPRLPRPRPRPSPPPRP | 0.435
RRIRSRPPRLPRPRPRPSHMPRP | -0.993
RRIRVRPPRLPRPRPRPQAKPRP | 0.0434
RRIRKRPPRLPRPRPRPRVQPRP | 0.386

Sequence | shrunken log2 fold change
RRIRDRPPRLPRPRPRPDTKPRP | 0.0114
RRIRLRPPRLPRPRPRPMPFPRP | -0.0289
RRIRRRPPRLPRPRPRPFTCPRP | -0.0792
RRIRTRPPRLPRPRPRPIHFPRP | -0.00174
RRIRWRPPRLPRPRPRPFQHPRP | 0.0415
RRIRARPPRLPRPRPRPCVDPRP | 0.581
RRIRGRPPRLPRPRPRPYWFPRP | 0.105
RRIRLRPPRLPRPRPRPFHLPRP | -0.177
RRIRKRPPRLPRPRPRPKYEPRP | 0.057
RRIRDRPPRLPRPRPRPTPGPRP | 0.468
RRIRKRPPRLPRPRPRPWQMPRP | 0.0764
RRIRFRPPRLPRPRPRPNMPPRP | -0.443
RRIRERPPRLPRPRPRPVDPPRP | -0.342
RRIRGRPPRLPRPRPRPKDPPRP | 0.517
RRIRLRPPRLPRPRPRPNWAPRP | -0.00149
RRIRWRPPRLPRPRPRPVDEPRP | 0.0343
RRIRERPPRLPRPRPRPLNAPRP | -0.113
RRIRARPPRLPRPRPRPDELPRP | 0.63
RRIRFRPPRLPRPRPRPKPGPRP | 0.446
RRIRARPPRLPRPRPRPVVWPRP | 0.687
RRIRQRPPRLPRPRPRPFCNPRP | 0.0828
RRIRHRPPRLPRPRPRPWTAPRP | -0.0875
RRIRARPPRLPRPRPRPEPWPRP | 0.742
RRIRTRPPRLPRPRPRPVIWPRP | 0.128
RRIRLRPPRLPRPRPRPIWAPRP | 0.136
